Experimental data reported in the supplement of paper PMC9732359.
± gives the uncertainty stated by the source.

Assay: protein stability index of a GFP-peptide fusion (yeast GPS) (PSI 1-4); higher = more stable; sorted into four equal gates, so the index is relative within each strain
In short: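 Plasmids in a pooled yeast library fused tiled 17-residue yeast protein peptides downstream of GFP and also expressed Cherry. Mid-log cultures grown without leucine were sorted into four equal gates by GFP/Cherry fluorescence ratio. Each gate's plasmids were PCR-amplified and Illumina-sequenced, and reads were matched to strains by barcodes. The protein stability index is derived by multiplying each gate's read frequency by its gate number and summing the results.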

Sequence	protein stability index (doa10∆)	protein stability index (pdr5∆)	protein stability index (ubr1∆)	protein stability index (san1∆)
NRSVVYFKLDLTSDLVY [RRI2]	1.37 ± 0.14	1.92 ± 0.28	1.39 ± 0.078	–
PTSPNYSPTSPSYSPTS [RPO21]	2.78 ± 0.034	2.9 ± 0.031	2.969 ± 0.026	3.064 ± 0.026
LLKSTGLHPFEVAQLGS [RPB4]	1.94 ± 0.12	1.81 ± 0.27	2.73 ± 0.2	–
IEAIDEYNKPNSEKFVF [ISW2]	2.6 ± 0.1	2.76 ± 0.075	3.15 ± 0.075	3.01 ± 0.092
KQTDTGITHFRAGMTHE [PRP8]	2.36 ± 0.055	2.61 ± 0.047	2.94 ± 0.037	3.08 ± 0.057
MPSRFTKTRKHRGHVSA [RPL28]	1.92 ± 0.06	2.19 ± 0.062	2.39 ± 0.062	2.09 ± 0.12
ALVAGIERYPSKVTKKH [RPL27B]	1.86 ± 0.082	1.99 ± 0.063	1.96 ± 0.2	1.47 ± 0.12
AQASEEENDLQQKLNTR [REC8]	2.96 ± 0.26	–	–	–
NLWKNIFLSKENSAVAA [COR1]	1.85 ± 0.053	2.24 ± 0.059	1.61 ± 0.063	2.01 ± 0.13
EFFVQVLTHESLHRQQQ [DLS1]	2.99 ± 0.19	2.91 ± 0.14	2.92 ± 0.13	2.81 ± 0.12
ETYVASYVVPRLYLKDQ [ECM29]	2.46 ± 0.1	1.93 ± 0.088	2.32 ± 0.054	1.91 ± 0.24
NSNKQAVAILADDEKSD [BRR2]	3.04 ± 0.091	3.07 ± 0.071	2.88 ± 0.044	3.03 ± 0.086
RVLEIQTSLVRMFEKNV [SKI6]	3.35 ± 0.094	3.07 ± 0.065	3.12 ± 0.047	2.51 ± 0.078
INPESREIVMPAHTKYM [ITC1]	1.63 ± 0.17	1.5 ± 0.2	2.18 ± 0.11	1.69 ± 0.14
DVAIENNTLSRYADAGN [RRP43]	3.36 ± 0.045	3.32 ± 0.048	3.44 ± 0.041	3.35 ± 0.035
SDSIEKIVEIDRHIGCA [PUP2]	–	3.11 ± 0.24	2.82 ± 0.19	2.74 ± 0.13
MNDVINTEEVNRLEKEQ [LIN1]	2.99 ± 0.1	3.31 ± 0.17	3.61 ± 0.085	3.27 ± 0.074
SGLNRAISTGNWSLKRF [RET1]	2.56 ± 0.07	2.57 ± 0.078	2.41 ± 0.054	2.67 ± 0.087
LSIICVGGHNVTIREQI [SIR3]	2.22 ± 0.069	1.65 ± 0.042	1.81 ± 0.056	1.78 ± 0.092
KSFISKLLGIGDIESLF [SRP54]	1.56 ± 0.061	1.82 ± 0.077	2.1 ± 0.12	2.2 ± 0.12
VGRQDPKKHLSETADET [RPN11]	3.17 ± 0.078	2.96 ± 0.09	2.92 ± 0.078	3.51 ± 0.066
VNAMRVLYYRDARSSRN [PRE4]	–	3.16 ± 0.23	–	2.57 ± 0.26
NSTASSSNISPEQVYSL [ARP7]	2.57 ± 0.05	2.78 ± 0.046	2.88 ± 0.039	2.63 ± 0.051
ITLENITRLCQTLGLES [MED1]	2.07 ± 0.04	2.28 ± 0.044	1.89 ± 0.037	1.91 ± 0.055
NTMSAWVNMLLISSSGP [FAS2]	1.99 ± 0.07	1.32 ± 0.051	1.52 ± 0.043	1.37 ± 0.1
TELRQLFQENDDDDDDD [DSN1]	2.03 ± 0.063	2.36 ± 0.071	2.38 ± 0.092	2.24 ± 0.11
GEDFMEVDYEDKDNPVD [SRB4]	3.56 ± 0.12	2.96 ± 0.24	3.32 ± 0.17	3.46 ± 0.15
CERRSTLKLQDTRITPS [PRE6]	2.53 ± 0.061	2.81 ± 0.092	2.82 ± 0.059	3.09 ± 0.099

Sequence	protein stability index (doa10∆)	protein stability index (pdr5∆)	protein stability index (ubr1∆)	protein stability index (san1∆)
AKRDYIISRLNADFQKP [FAS1]	3.32 ± 0.13	3.07 ± 0.085	3.22 ± 0.077	2.94 ± 0.091
INAEEIVDFTLPPPPPP [PRP8]	2.94 ± 0.07	3.06 ± 0.053	3.04 ± 0.045	3.01 ± 0.047
ALHYLVPFIIAAMVIMH [COB]	1.73 ± 0.066	1.29 ± 0.061	1.4 ± 0.055	1.61 ± 0.15
MQKPVPFVPVLDRRFEI [FAS1]	1.98 ± 0.034	1.95 ± 0.03	1.92 ± 0.028	1.82 ± 0.043
LTVDNLSIAIVGKDTPF [PRE5]	2.9 ± 0.052	2.66 ± 0.05	3 ± 0.037	2.62 ± 0.05
SCAIHARIVRVRSREDR [RPS26A]	2.41 ± 0.14	1.39 ± 0.11	2.62 ± 0.089	1.4 ± 0.18
NDSSATRSWRPPQAGDR [RPB8]	3.06 ± 0.26	–	2.76 ± 0.26	–
FKRDLLREKEDKKNSSD [YJL039C/NUP192]	3.38 ± 0.13	2.92 ± 0.18	3 ± 0.14	3.23 ± 0.064
GKHSIGLIWYLLAREVL [RPS0A]	1.59 ± 0.073	1.87 ± 0.064	2.06 ± 0.054	1.65 ± 0.1
HHIHHFEKKELQEKFLN [IRR1]	1.72 ± 0.035	1.61 ± 0.043	1.56 ± 0.037	1.87 ± 0.068
LRHMPLASIPDIFITPT [SSN2]	1.78 ± 0.054	1.69 ± 0.054	1.61 ± 0.043	1.47 ± 0.068
LKTEKIFKEINEHSTSY [FAS1]	3.29 ± 0.22	3.48 ± 0.2	–	–
KLNELDELILEAKERYT [NNF1]	2.98 ± 0.11	3.17 ± 0.096	2.82 ± 0.16	3.23 ± 0.058
GKKRFRVVTVDGKLIDI [SMC4]	–	3.49 ± 0.14	3.55 ± 0.18	3.31 ± 0.076
IDSINGPDTKGQLEDFD [SMC3]	3.47 ± 0.14	3.29 ± 0.11	3.31 ± 0.1	3.18 ± 0.24
LNIGKNFAHSDSLSVPK [SIR4]	3.17 ± 0.085	3 ± 0.075	3.2 ± 0.05	3.12 ± 0.042
SQYSTMVNIGLHNLNEY [RGR1]	1.16 ± 0.14	2.09 ± 0.1	1.25 ± 0.13	1.16 ± 0.09
VIRMVVLTAAGVERLIF [PRE3]	2.33 ± 0.17	2.99 ± 0.13	3.17 ± 0.14	2.42 ± 0.13
PELFESLGIAQPKGVIL [RPT6]	2.56 ± 0.052	2.82 ± 0.069	2.54 ± 0.061	2.46 ± 0.092
DLCSLKPYVDRFAFSVI [DIS3]	1.93 ± 0.05	1.87 ± 0.052	2.27 ± 0.04	1.93 ± 0.065
DDALHAKKLPNGNWEVG [DIS3]	3.3 ± 0.098	3.12 ± 0.083	3.05 ± 0.057	2.94 ± 0.057
SMATPTHSDSHEDMKRR [ROX3]	2.77 ± 0.11	2.94 ± 0.11	2.73 ± 0.04	2.53 ± 0.091
GSSGGVIRMVVLTAAGV [PRE3]	2.33 ± 0.086	1.74 ± 0.075	1.74 ± 0.049	2.64 ± 0.12
AEEQTKLQSQSLHTKNV [YLR018C/POM34]	3.29 ± 0.058	3.44 ± 0.063	3.13 ± 0.049	3.1 ± 0.071
EAAAAEEGEEEEVKEEV [RPS0B]	3.24 ± 0.13	3.48 ± 0.049	3.37 ± 0.11	3.19 ± 0.069
SSTDFSTCIVSLIRNNL [ECM29]	2.7 ± 0.066	2.99 ± 0.092	2.88 ± 0.054	2.41 ± 0.063
RENALYDYYALQLLPLQ [SNF2]	2.63 ± 0.078	2.74 ± 0.045	2.77 ± 0.042	2.72 ± 0.056
